Reference: paper PMC4333827

Tests used:
[1] = target: C-terminal helical domain-deleted (ΔH-domain) form of CoMsrA (residues 1-144) (Clostridium oremlandii) (UniProt A8MI53); test: SEC; gel filtration on Superdex S75 16/60 at the final purification step; 10 mM Tris-HCl pH 8.0, 100 mM NaCl
[2] = target: C-terminal helical domain-deleted (ΔH-domain) form of CoMsrA (residues 1-144) (Clostridium oremlandii) (UniProt A8MI53); test: as above; remark: listed apart in the source
[3] = target: C-terminal helical domain-deleted (ΔH-domain) form of CoMsrA (residues 1-144) (Clostridium oremlandii) (UniProt A8MI53); test: native gel or EMSA; native-PAGE; 0.2 mg/ml protein in 10 mM Tris-HCl pH 8.0, 100 mM NaCl; without and with 10 mM DTT
[4] = target: C-terminal helical domain-deleted (ΔH-domain) form of CoMsrA (residues 1-144) (Clostridium oremlandii) (UniProt A8MI53); test: SEC-MALS; SEC-MALLS; WTC-015S5 column, 20 mM Tris-HCl pH 8.0, 100 mM NaCl, 298 K, 0.5 ml/min; 2.5 mg/ml full-length, 1.5 mg/ml ΔH-domain

What does the source list for “C-terminal helical domain-deleted (ΔH-domain) form of CoMsrA (residues 1-144) (from UniProt A8MI53 1-144) (domain or fragment)”?
stoichiometry N [1]: 2; stoichiometry N [2]: 4; stoichiometry N [3]: 2; stoichiometry N [4]: 2
